B4: human IL-23 (ligand)
chain 1: RAVPGGSSPAWTQCQQLSQKLCTLAWSAHPLVGHMDLREEGDEETTNDVPHIQCGDGCDPQGLRDNSQFCLQRIHQGLIFYEKLLGSDIFTGEPSLLPDSPVGQLHASLLGLSQLLQPEGHHWETQQIPSLSPSQPWQRLLLRFKILRSLQAFVAVAARVFAHGAATLSP
chain 2: IWELKKDVYVVELDWYPDAPGEMVVLTCDTPEEDGITWTLDQSSEVLGSGKTLTIQVKEFGDAGQYTCHKGGEVLSHSLLLLHKKEDGIWSTDILKDQKEPKNKTFLRCEAKNYSGRFTCWWLTTISTDLTFSVKSSRGSSDPQGVTCGAATLSAERVRGDNKEYEYSVECQEDSACPAAEESLPIEVMVDAVHKLKYENYTSSFFIRDIIKPDPPKNLQLKPLKNSRQVEVSWEYPDTWSTPHSYFSLTFCVQVQGKSKREKKDRVFTDKTSATVICRKNASISVRAQDRYYSSSWSEWASVPCS
notes: Heterodimer of p19 and p40; in the proliferation assays CAT # HZ-1254, HumanZyme; also called hIL-23; hIL23

For assay [1], the target named is B4. Briefly: competition ELISA (ECL): 0.2 nM biotinylated hIL-23 pre-incubated with varied mutein, free hIL-23 captured on coated soluble hIL-23R (competitor). In general terms: ELISA stands for enzyme-linked immunosorbent assay.
Assay [2] has as its target B4. Briefly: cell-based or functional assay.
In assay [3] the target is B4. Briefly: competition ECL assay: biotinylated hIL-23 pre-incubated with varied binder, free hIL-23 captured on coated soluble hIL-23R (competitor); Example 28.
Assay [4] has as its target B4. The assay can be described thus: cell-based or functional assay. The source holds these as a separate data set.
In assay [5] the target is B4. The assay can be described thus: competition ELISA (ECL), 0.2 nM biotinylated hIL-23, coated soluble hIL-23R.
For assay [6], the target named is T1, lipocalin mutein SEQ ID NO: 10.
T1 construct: Human NGAL (lipocalin 2) mutein specific for IL-23p19
T1 chain: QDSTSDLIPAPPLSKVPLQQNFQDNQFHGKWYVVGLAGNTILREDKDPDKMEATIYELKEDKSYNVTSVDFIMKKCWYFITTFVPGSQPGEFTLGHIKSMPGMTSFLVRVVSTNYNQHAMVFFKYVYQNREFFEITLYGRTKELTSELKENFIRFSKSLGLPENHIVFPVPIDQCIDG
The assay can be described thus: solution competition ELISA: 1 nM SEQ ID NO: 10 pre-incubated with varied ligand, free mutein captured on immobilised biotinylated hIL-23 (competitor). The procedure:
(§1) In the following detailed experimental protocol, incubation and washing steps were performed as described above in the competition ELISA protocol. A 384-well plate suitable for fluorescence measurements (Greiner FLUOTRAC™ 600, black flat bottom, high-binding) was coated with 20 μl of Neutravidin at a concentration of 5 μg/ml in PBS over night at 4° C. After washing, the Neutravidin-coated wells were blocked with 100 μl PBS-T/BSA for 1h at room temperature.

The target in assay [7] is T2, lipocalin mutein SEQ ID NO: 6.
T2 construct: Tear lipocalin mutein specific for IL-23p19
Briefly: solution competition ELISA: 100 nM mutein (C-terminal Streptag) pre-incubated with varied ligand, free mutein captured on immobilised biotinylated hIL-23 (competitor). The protocol: (§2) In the following detailed experimental protocol, incubation and washing steps were performed as described above in the competition ELISA protocol. A 384-well plate suitable for fluorescence measurements (Greiner FLUOTRAC™ 600, black flat bottom, high-binding) was coated with 20 μl of Neutravidin at a concentration of 5 μg/ml in PBS over night at 4° C. After washing, the Neutravidin-coated wells were blocked with 100 μl blocking buffer (PBS-T/BSA) for 1h at room temperature.
(§3) Note that the lipocalein muteins contained a C-terminal Streptag fusion to allow binding and subsequent detection with the aid of an anti-Streptag antibody.
(§4) The residual supernatants were discarded and 20 μl of HRP-conjugated anti-Streptag IgG antibody (Genscript) was added at a predetermined optimal concentration in PBS-T/BSA and incubated for 1 h at RT. After washing, 20 μl fluorogenic HRP substrate (Quantablue, Pierce) was added to each well, and the reaction allowed to proceed for 30 minutes.

Assay [8] deals with T3, lipocalin mutein SEQ ID NO: 13.
T3 construct: Tear lipocalin mutein specific for IL-23p19
The description is as above. The protocol:
as §2, §3, §4

Assay [9] concerns the target T4, lipocalin mutein SEQ ID NO: 12.
T4 construct: Tear lipocalin mutein specific for IL-23p19
Described as above. The procedure:
as §2, §3, §4

Assay [10] addresses T5, lipocalin mutein SEQ ID NO: 9.
T5 construct: Human NGAL (lipocalin 2) mutein specific for IL-23p19
T5 chain: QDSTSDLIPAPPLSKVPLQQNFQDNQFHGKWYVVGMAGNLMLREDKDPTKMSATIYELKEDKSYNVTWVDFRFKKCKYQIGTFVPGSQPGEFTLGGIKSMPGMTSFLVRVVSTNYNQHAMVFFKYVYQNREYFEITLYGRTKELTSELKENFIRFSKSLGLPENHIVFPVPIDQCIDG
The assay can be described thus: solution competition ELISA: 10 nM SEQ ID NO: 9 pre-incubated with varied ligand, free mutein captured on immobilised biotinylated hIL-23 (competitor). The procedure: as §1

Assay [11] deals with B4. The assay can be described thus: competition ELISA (ECL): 0.05 nM biotinylated hIL-23 pre-incubated with varied binder, free hIL-23 captured on coated soluble hIL-23R (competitor); single measurement. The protocol:
(§5) The IgG antibody served as the positive control. […] The detailed experimental procedure was described as follows.
(§6) After washing, 60 μl MSD Read Buffer T (2×) was added to each well and the plate was read within 15 min.
(§7) The resulting Electrochemoluminescence (ECL) signal was measured with a suitable instrument such as the SECTOR Imager 2400 (Meso Scale Discovery).

The target in assay [12] is B4. The assay can be described thus: competition ELISA (ECL): 0.05 nM biotinylated hIL-23 pre-incubated with varied binder, free hIL-23 captured on coated soluble hIL-23R (competitor); average of two measurements. The procedure: as §5, §6, §7
For another assay, the target named is human IL-17A (human, UniProt Q16552 24-155). Briefly: cell-based or functional assay.
The target of assay [13] is T6, lipocalin mutein SEQ ID NO: 5.
T6 construct: Human tear lipocalin (Tlc) mutein specific for IL-17A; also called Tlc mutein
Briefly: solution competition ELISA: 0.5 nM SEQ ID NO: 5 pre-incubated with varied ligand, free mutein captured on immobilised biotinylated hIL-17A (competitor). The protocol:
as §2

Several values for one entry are separate records, joined by “and”; a condition that tells them apart may be missing. Equal entries are not always repeated.

Data on 8 molecules can be found in patent US20200148733A1 (Pieris, published 2020).

T4 sequence (chain, as listed by the source): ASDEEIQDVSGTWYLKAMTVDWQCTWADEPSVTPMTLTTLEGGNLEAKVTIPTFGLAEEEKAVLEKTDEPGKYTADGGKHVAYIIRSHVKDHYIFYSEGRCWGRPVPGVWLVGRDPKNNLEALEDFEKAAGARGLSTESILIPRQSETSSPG
T6 sequence (chain, as listed by the source): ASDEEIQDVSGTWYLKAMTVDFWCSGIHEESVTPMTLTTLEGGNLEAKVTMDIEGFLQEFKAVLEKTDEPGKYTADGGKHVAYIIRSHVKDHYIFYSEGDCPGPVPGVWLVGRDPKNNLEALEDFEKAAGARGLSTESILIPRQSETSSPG
T3 sequence (chain, as listed by the source): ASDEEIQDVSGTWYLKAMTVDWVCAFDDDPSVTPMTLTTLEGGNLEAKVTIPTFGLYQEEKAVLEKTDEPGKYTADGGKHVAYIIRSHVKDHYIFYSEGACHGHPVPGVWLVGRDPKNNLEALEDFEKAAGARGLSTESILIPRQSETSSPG
T2 sequence (chain, as listed by the source): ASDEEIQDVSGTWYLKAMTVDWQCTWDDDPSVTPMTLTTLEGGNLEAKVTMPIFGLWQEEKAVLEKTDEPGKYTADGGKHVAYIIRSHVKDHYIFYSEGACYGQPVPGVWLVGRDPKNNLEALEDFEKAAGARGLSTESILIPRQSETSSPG

B1: lipocalin mutein SEQ ID NO: 15 (designed binder)
chain: QDSTSDLIPAPPLSKVPLQQNFQDNQFHGKWYVVGEAGNLLLREDKDPRKMTATIYELKEDKSYNVTRVEFGVKTYKYQIGTFVPGSQPGEFTLGGIKSMPGMTSFLVRVVSTNYNQHAMVFFKYVYQNREYFEITLYGRTKELTSELKENFIRFSKSLGLPENHIVFPVPIDQAIDG
notes: IL-23p19-specific mutein
As usually defined, the IC50 is the concentration at which inhibition is half-maximal. A higher IC50 goes with a need for much substance. In the assay with human IL-23 [1], B1 returned a half-maximal inhibitory concentration (IC50) of 300 pM. Moreover, in the assay with human IL-23 [2], the “EC50 [nM] AVERAGE, hIL-23-induced proliferation of Ba/F3 cells expressing hIL-23R and hIL-12Rβ1” value worked out at 0.6 nM; the “EC50 [nM] Exp 1, hIL-23-induced proliferation of Ba/F3 cells expressing hIL-23R and hIL-12Rβ1” value is 0.3 nM; the “EC50 [nM] Exp 2, hIL-23-induced proliferation of Ba/F3 cells expressing hIL-23R and hIL-12Rβ1” value came out at 0.4 nM; the “EC50 [nM] Exp 3, hIL-23-induced proliferation of Ba/F3 cells expressing hIL-23R and hIL-12Rβ1” value came out at 1 nM. In addition, in the assay with human IL-23 [2], the “EC50 [nM] Exp 4, hIL-23-induced proliferation of Ba/F3 cells expressing hIL-23R and hIL-12Rβ1” value was 0.7 nM. The molecule also had a half-maximal inhibitory concentration (IC50) with human IL-23 [3] of 270 pM. Besides, the “IC50, hIL-23-induced proliferation of Ba/F3 cells expressing hIL-23R and hIL-12Rβ1” value with human IL-23 [4] turned out to be 3800 pM.

B2: ABD fusion (SEQ ID NO: 42) (designed binder)
chain: QDSTSDLIPAPPLSKVPLQQNFQDNQFHGKWYVVGEAGNLLLREDKDPRKMTATIYELKEDKSYNVTRVEFGVKTYKYQIGTFVPGSQPGEFTLGGIKSMPGMTSFLVRVVSTNYNQHAMVFFKYVYQNREYFEITLYGRTKELTSELKENFIRFSKSLGLPENHIVFPVPIDQAIDGSAGAVDANSLAEAKVLANRELDKYGVSDYYKNLINNAKTVEGVKALIDEILAALP
Consider B2, for which, in the assay with human IL-23 [4], the “IC50 (experiment of FIG. 19), hIL-23-induced proliferation of Ba/F3 cells expressing hIL-23R and hIL-12Rβ1” value worked out at 220 pM; the “IC50 (three independent experiments), hIL-23-induced proliferation of Ba/F3 cells expressing hIL-23R and hIL-12Rβ1” value amounted to 410 pM.

B3: negative control SEQ ID NO: 11 (designed binder)
chain: QDSTSDLIPAPPLSKVPLQQNFQDNEFHGKWYVVGLAGNAILREDKDPQKMYATIYELKEDKSYNVTSVLFRKKKCDYWIRTFVPGSQPGEFTLGNIKSYPGLTSYLVRVVSTNYNQHAMVFFKKVSQNREYFKITLYGRTKELTSELKENFIRFSKSLGLPENHIVFPVPIDQCIDG
With B3, in the assay with human IL-23 [5], the binding result is “no binding (tested: starting concentration 500 nM)”.
B4: the IC50 in [6] turned out to be 1400 pM; in [7], 89000 pM; in assay [8], 24000 pM; in assay [9], 66000 pM; in assay [10], 55000 pM.

B5: IgG antibody (comprising the amino acids shown in SEQ ID NOs: 51 and 52) (antibody, V domains shown)
VH: QVQLVQSGAEVKKPGASVKVSCKASGYIFITYWMTWVRQAPGQGLEWMGQIFPASGSADYNEKFEGRVTMTTDTSTSTAYMELRSLRSDDTAVYYCARGGGGFAYWGQGTLVTVSS
VL: DIQMTQSPSSLSASVGDRVTITCRTSENIYSYLAWYQQKPGKAPKLLIYNAKTLAEGVPSRFSGSGSGTDFTLTISSLQPEDFATYYCQHHYGIPFTFGQGTKVEIKR
notes: also called positive control IgG
Take B5: the concentration for half-maximal inhibition (IC50) in the assay with human IL-23 [11] is 220 pM and 290 pM; with human IL-23 [12] it was 260 pM.

B6: mouse IL-23 (ligand)
chain 1: VPRSSSPDWAQCQQLSRNLCMLAWNAHAPAGHMNLLREEEDEETKNNVPRIQCEDGCDPQGLKDNSQFCLQRIRQGLAFYKHLLDSDIFKGEPALLPDSPMEQLHTSLLGLSQLLQPEDHPRETQQMPSLSSSQQWQRPLLRSKILRSLQAFLAIAARVFAHGAATLTEPLVPTA
chain 2: MWELEKDVYVVEVDWTPDAPGETVNLTCDTPEEDDITWTSDQRHGVIGSGKTLTITVKEFLDAGQYTCHKGGETLSHSHLLLHKKENGIWSTEILKNFKNKTFLKCEAPNYSGRFTCSWLVQRNMDLKFNIKSSSSSPDSRAVTCGMASLSAEKVTLDQRDYEKYSVSCQEDVTCPTAEETLPIELALEARQQNKYENYSTSFFIRDIIKPDPPKNLQMKPLKNSQVEVSWEYPDSWSTPHSYFSLKFFVRIQRKKEKMKETEEGCNQKGAFLVEKTSTEVQCKGGNVCVQAQDRYYNSSCSKWACVPCRVRS
notes: also called mIL-23
Take B6: the 50% inhibitory concentration (IC50) in [6] was 361000 pM; in assay [10] it was 88000 pM.

B7: benchmark antibody 2 (antibody, human IgG4, kappa, V domains shown)
VH: QVQLVQSGAEVKKPGSSVKVSCKASGYSFTDYHISWVRQAPGQGLEWMGVINPEYGTTDYNQRFKGRVTITADESTSTAYMELSSLRSEDTAVYYCARYDYFTGTGAYWGQGTLVTVSS
VL: DIVMTQTPLSLSVTPGQPASISCRSSQSLKHSRGNTFLHWYLQKPGQSPQLLIYKVSNRFIGVPDRFSGSGSGTDFTLKISRVEAEDVGVYYCSQSTHYPFTFGQGTKLEIKR
For B7, the “IC50, hIL-17A-induced secretion of G-CSF in U87-MG cells” value with human IL-17A is 600 pM.

B8: cynomolgus monkey IL-17A (ligand)
chain: GIAIPRNSGCPNSEDKNFPRTVMVNLNIHNRNTSTNPKRSSDYYNRSTSPWNLHRNEDPERYPSVIWEAKCRHLGCVKADGNVDYHMNSVPIQQEILVLRREPRHCPNSFRLEKILVSVGCTCVTPIVHHVA
notes: also called cIL-17A; cIL-17-A
As to B8, the IC50 in assay [13] turned out to be 300 pM.
